Data as given in article PMC12381709, “Fluorinating the Sugar and the Nucleotide: Exploring Fluorination Within GDP-Mannose Probes Using Chemoenzymatic Synthesis” (JACS Au, 2025).

Columns and labels:
Assay in all cases: purified protein
Conditions in all cases: co-substrate NAD+
[1] = test system: Nc1nc2c(ncn2[C@@H]2O[C@H](COP(=O)(O)OP(=O)(O)O[C@H]3O[C@H](CO)[C@@H](O)[C@H](O)[C@@H]3O)[C@@H](O)[C@H]2F)c(=O)[nH]1
[2] = test system: Nc1nc2c(ncn2[C@@H]2O[C@H](COP(=O)(O)OP(=O)(O)O[C@H]3O[C@H](CO)[C@@H](O)[C@H](O)[C@@H]3F)[C@@H](O)[C@H]2F)c(=O)[nH]1
[3] = test system: Nc1nc2c(ncn2[C@@H]2O[C@H](COP(=O)(O)OP(=O)(O)O[C@H]3O[C@H](CO)[C@@H](O)[C@H](O)[C@@H]3F)[C@@H](O)[C@H]2O)c(=O)[nH]1
[4] = test system: Nc1nc2c(ncn2[C@@H]2O[C@H](COP(=O)(O)OP(=O)(O)O[C@H]3O[C@H](CO)[C@@H](O)[C@H](O)[C@@H]3O)[C@@H](O)[C@H]2O)c(=O)[nH]1

GDP-mannose dehydrogenase (GMD; PaGMD) (Pseudomonas aeruginosa PAO1)
Km [1]: 20.95 ± 0.83 µM | kcat [1]: 0.0507 ± 0.00067 s⁻¹ | Km [2]: 87.72 ± 5.82 µM | kcat [2]: 0.0407 ± 0.0012 s⁻¹ | Km [3]: 134.29 ± 12.78 µM | kcat [3]: 0.0655 ± 0.00267 s⁻¹ | Km [4]: 18.18 ± 3.82 µM | kcat [4]: 0.0427 ± 0.00333 s⁻¹
